Experimental data reported in PMC13188885, “Zero-valent sulfur is the product of assimilatory sulfite reductase and a substrate of cysteine synthase” (Applied and Environmental Microbiology, 2026).

How the values were obtained:
Assay in all cases: mBBr-HPLC of cysteine released by TCEP; Michaelis-Menten fit
Conditions in all cases: O-acetyl-L-serine co-substrate 1.0-2.0 mM, 100 µM PLP, pH 7.4, 30 °C
[1] = substrate: O=S(O)(O)=S; assay type: biochemical, Saccharolobus islandicus
Description: (§1) mBBr-HPLC of cysteine released by TCEP; Michaelis-Menten fit on SiRe_1641 | We then assayed the kinetics of all five cysteine synthases

[2] = substrate: N[C@@H](CCC(=O)N[C@@H](CSS)C(=O)NCC(=O)O)C(=O)O; assay type: biochemical, Saccharolobus islandicus
Description: as §1

[3] = substrate: O=S(O)(O)=S; assay type: biochemical, Escherichia coli
Description: (§2) mBBr-HPLC of cysteine released by TCEP; Michaelis-Menten fit on EcCysK | We then assayed the kinetics of all five cysteine synthases

[4] = substrate: N[C@@H](CCC(=O)N[C@@H](CSS)C(=O)NCC(=O)O)C(=O)O; assay type: biochemical, Escherichia coli
Description: as §2

[5] = substrate: O=S(O)(O)=S; assay type: biochemical, Escherichia coli; remark: listed apart in the source
Description: (§3) mBBr-HPLC of cysteine released by TCEP; Michaelis-Menten fit on EcCysM | We then assayed the kinetics of all five cysteine synthases

[6] = substrate: N[C@@H](CCC(=O)N[C@@H](CSS)C(=O)NCC(=O)O)C(=O)O; assay type: biochemical, Escherichia coli; remark: listed apart in the source
Description: as §3

B1: SiRe_1641 (Saccharolobus islandicus REY15A) (protein)
chain: MSNPLHVFSNEQELLEGMWPTPLLKLRIGNDTWAKLEFYNPFSRSVKDRTAWFLFRQALIKNVNHIVEATSGNTGIALASLSSIYGMQFTMFLPVVAPKVYKVLVKLLGGNVIEAGNSTNDVIPLVKRFAEMSNAVNLDQFNNPINVIAHYETTAREIDEQLTSIGKRPSRIIATMGTGGHIAGVAKYFKEKYGNDVEIVGVQPSENSRIPGIKRQNGSNSLLRDIKIDRVVDVSLEEAIDGTISVARTSGILIGISAGATVAAYKRINDVSSTTVLIFPDDAFKYVDILEQTLKEI
notes: N-terminal His-tag, expressed in E. coli BL21(DE3), Ni-NTA
How did the Km [1] turn out when B1 was run?
Its Km is 1126 ± 162 µM.

And the Vmax [1]?
The Vmax was 0.065 µM/min/mg.

And the kcat [1]?
Its kcat is 1.52 ± 0.511 s⁻¹.

What about the Km [2] of the same protein?
The Km was 279 ± 32 µM.

And the Vmax [2]?
Its Vmax is 0.174 µM/min/mg.

And the kcat [2]?
The kcat was 4.92 ± 1.27 s⁻¹.

B2: EcCysK (Escherichia coli K-12) (protein)
chain: MSKIFEDNSLTIGHTPLVRLNRIGNGRILAKVESRNPSFSVKCRIGANMIWDAEKRGVLKPGVELVEPTSGNTGIALAYVAAARGYKLTLTMPETMSIERRKLLKALGANLVLTEGAKGMKGAIQKAEEIVASNPEKYLLLQQFSNPANPEIHEKTTGPEIWEDTDGQVDVFIAGVGTGGTLTGVSRYIKGTKGKTDLISVAVEPTDSPVIAQALAGEEIKPGPHKIQGIGAGFIPANLDLKLVDKVIGITNEEAISTARRLMEEEGILAGISSGAAVAAALKLQEDESFTNKNIVVILPSSGERYLSTALFADLFTEKELQQ
notes: as for B1
With B2 as the protein, how does the Km [3] read?
Its Km is 1036 ± 82 µM.

And the Vmax [3]?
The Vmax was 0.074 µM/min/mg.

What about the kcat [3] of the same protein?
Its kcat is 2.45 ± 0.935 s⁻¹.

What about the Km [4] of the same protein?
Its Km is 265 ± 37 µM.

And the Vmax [4]?
The Vmax was 0.163 µM/min/mg.

And the kcat [4]?
Its kcat is 9.78 ± 0.665 s⁻¹.

B3: EcCysM (Escherichia coli K-12) (protein)
chain: MSTLEQTIGNTPLVKLQRMGPDNGSEVWLKLEGNNPAGSVKDRAALSMIVEAEKRGEIKPGDVLIEATSGNTGIALAMIAALKGYRMKLLMPDNMSQERRAAMRAYGAELILVTKEQGMEGARDLALEMANRGEGKLLDQFNNPDNPYAHYTTTGPEIWQQTGGRITHFVSSMGTTGTITGVSRFMREQSKPVTIVGLQPEEGSSIPGIRRWPTEYLPGIFNASLVDEVLDIHQRDAENTMRELAVREGIFCGVSSGGAVAGALRVAKANPDAVVVAIICDRGDRYLSTGVFGEEHFSQGAGI
notes: as for B1
B3 was tested. Which Km [5] did it give?
The Km was 408 ± 28 µM.

What about the Vmax [5] of the same protein?
The Vmax was 0.173 µM/min/mg.

And the kcat [5]?
Its kcat is 5.81 ± 0.92 s⁻¹.

And the kcat/Km [5]?
Its kcat/Km is 12600 M⁻¹ s⁻¹.

What about the Km [6] of the same protein?
Its Km is 325 ± 33 µM.

What about the Vmax [6] of the same protein?
The Vmax was 0.155 µM/min/mg.

What about the kcat [6] of the same protein?
Its kcat is 5.16 ± 1.55 s⁻¹.

And the kcat/Km [6]?
Its kcat/Km is 14700 M⁻¹ s⁻¹.
